# Measurements as given in patent US20220056091A1 (BRIGHT PEAK THERAPEUTICS, published 2022).
# T1: Fc fused human IL-18Rα (human, UniProt Q13478 19-329, limits assumed)
# T1 construct: also called IL-18Rα monomer; IL-18 receptor alpha; not shown: Fc part
# T1 sequence (looked up): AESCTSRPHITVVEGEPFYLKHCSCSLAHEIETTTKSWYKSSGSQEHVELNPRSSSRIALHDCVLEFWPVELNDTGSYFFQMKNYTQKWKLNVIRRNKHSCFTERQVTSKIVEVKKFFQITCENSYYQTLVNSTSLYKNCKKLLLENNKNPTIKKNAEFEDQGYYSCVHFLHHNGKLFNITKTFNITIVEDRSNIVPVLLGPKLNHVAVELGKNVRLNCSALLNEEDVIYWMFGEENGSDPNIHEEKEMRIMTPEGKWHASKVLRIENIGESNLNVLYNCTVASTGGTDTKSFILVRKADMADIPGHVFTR
# T2: IL-18Rα/β heterodimer (Fc fused human IL-18Rα mixed and pre-incubated with Fc fused human IL-18Rβ) (human, UniProt Q13478 19-329; O95256 20-356, limits assumed)
# T2 construct: 6 µg/mL of each receptor mixed and pre-incubated 30 min before capture on anti-human IgG; also called alpha/beta heterodimer IL-18 receptor; not shown: Fc part
# T2 sequence (looked up) 1: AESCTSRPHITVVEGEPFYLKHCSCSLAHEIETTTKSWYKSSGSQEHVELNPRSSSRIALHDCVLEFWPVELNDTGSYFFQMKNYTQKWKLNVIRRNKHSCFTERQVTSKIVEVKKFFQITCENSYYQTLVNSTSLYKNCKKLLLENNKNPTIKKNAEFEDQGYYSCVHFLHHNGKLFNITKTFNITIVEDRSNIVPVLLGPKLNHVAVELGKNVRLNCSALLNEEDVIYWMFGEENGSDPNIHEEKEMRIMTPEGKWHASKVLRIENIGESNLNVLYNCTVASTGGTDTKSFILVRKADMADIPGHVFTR
# T2 sequence (looked up) 2: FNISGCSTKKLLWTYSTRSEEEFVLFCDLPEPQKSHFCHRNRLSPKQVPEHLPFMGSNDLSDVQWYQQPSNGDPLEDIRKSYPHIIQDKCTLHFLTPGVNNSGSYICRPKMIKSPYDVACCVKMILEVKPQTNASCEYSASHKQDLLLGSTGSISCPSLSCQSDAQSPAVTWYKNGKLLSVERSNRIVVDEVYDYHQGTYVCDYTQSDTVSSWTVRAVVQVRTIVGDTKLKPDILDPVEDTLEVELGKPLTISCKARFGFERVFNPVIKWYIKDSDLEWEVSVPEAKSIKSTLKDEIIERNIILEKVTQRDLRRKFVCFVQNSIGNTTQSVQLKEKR
# T3: Fc fused human IL-18BP isoform a (IL-18BPa) (human, UniProt O95998 31-194)
# T3 construct: also called IL-18BP monomer; not shown: Fc part
# T3 sequence (looked up): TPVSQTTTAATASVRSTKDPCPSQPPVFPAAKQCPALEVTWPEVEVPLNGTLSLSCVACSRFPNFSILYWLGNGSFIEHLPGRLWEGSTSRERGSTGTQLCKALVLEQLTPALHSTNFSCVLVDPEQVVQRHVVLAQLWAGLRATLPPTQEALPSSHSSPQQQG
# Columns and labels:
# Fc fused human IL-18Rα = target: T1, Fc fused human IL-18Rα; test: SPR, Fc-IL-18Rα captured, 1:1 model
# Description: (§1) The interaction of the wild type and of modified IL-18 polypeptides with human IL-18 receptor subunits were measured with Surface Plasmon Resonance (SPR) technology. Anti-human IgG antibodies were bound by amine coupling onto a CM5 chip to capture 6 μg/mL of Fc fused human IL-18Rα, 6 μg/mL of Fc fused human IL-18Rβ, or 2 μg/mL of Fc fused human IL-18BP isoform a (IL-18BPa) for 30 min before capture. In other settings, 6 μg/mL of alpha and beta IL-18 receptors were mixed and pre-incubated for 30 min before capture of the alpha/beta heterodimer IL-18 receptor.
# (§2) The kinetic binding of the IL-18 analytes were measured with a Biacore 8K instrument in two-fold serial dilutions starting at 1 μM down to 0.98 nM. Regeneration of the surface back to amine coupled anti IgG antibody was done after every concentration of analyte. To measure the protein association to the receptors, the samples were injected with a flow rate of 50 μL/min for 60 s, followed by 300 s buffer only to detect the dissociation. The used running buffer was 1×PBS with 0.05% Tween20. The relative response units (RU, Y-axis) are plotted against time (s, X-axis) and analyzed in a kinetic 1:1 binding model for the monomer receptor binding and for the binding to the IL-18BP. A kinetic heterogenous ligand fit model was applied for the alpha/beta heterodimer binding.
# Modified IL-18 polypeptides having sequence modifications E06K, K53A, S55A, and T63A maintained binding affinity to IL-18Rα.
# [1] = target: T2, IL-18Rα/β heterodimer (Fc fused human …); test: SPR, Fc-IL-18Rα/Fc-IL-18Rβ mix captured, heterogeneous ligand model
# Description: as §1, §2
# Modified IL-18 polypeptides bearing sequence modifications E06K, K53A, S55A, and T63A maintained binding affinity to IL-18Rα/β heterodimer.
# [2] = target: T3, Fc fused human IL-18BP isoform a …; test: SPR, Fc-IL-18BPa captured, 1:1 model
# Description: as §1, §2
# Modified IL-18 polypeptides bearing sequence modifications K53A, S55A, E06K, C38S, C68S, C76S, C127S, and/or K70C maintained binding affinity to IL-18BP.
# [3] = target: IL-18R on HEK-Blue IL18R reporter cells (InvivoGen, #hkb-hmil18); test: cell-based or functional assay
binder,measurement,setting,value
"Modified IL-18 polypeptide of SEQ ID NO: 3 (Y01G, F02A, E06K, M51G, K53A, D54A, S55A, T63A) (ligand) GAGKLKSKLSVIRNLNDQVLFIDQGNRPLFEDMTDSDCRDNAPRTIFIISGYAAAQPRGMAVAISVKCEKISTLSCENKIISFKEMNPPDNIKDTKSDIIFFQRSVPGHDNKMQFESSSYEGYFLACEKERDLFKLILKKEDELGDRSIMFTVQNED",Kd,Fc fused human IL-18Rα,> 1000 nM
same,Kd,[1],> 1000 nM
"Modified IL-18 polypeptide of SEQ ID NO: 15 (C38S, C68S, C76S, C127S) (ligand) YFGKLESKLSVIRNLNDQVLFIDQGNRPLFEDMTDSDSRDNAPRTIFIISMYKDSQPRGMAVTISVKSEKISTLSSENKIISFKEMNPPDNIKDTKSDIIFFQRSVPGHDNKMQFESSSYEGYFLASEKERDLFKLILKKEDELGDRSIMFTVQNED",Kd,Fc fused human IL-18Rα,231 nM
same,koff,Fc fused human IL-18Rα,0.0179 s⁻¹
same,kon,Fc fused human IL-18Rα,77500 M⁻¹ s⁻¹
same,Kd,[1],315 nM
same,koff,[1],0.022 s⁻¹
same,kon,[1],69800 M⁻¹ s⁻¹
same,Kd,[2],0.199 nM
same,koff,[2],0.000253 s⁻¹
same,kon,[2],1.27e+06 M⁻¹ s⁻¹
"Modified IL-18 polypeptide of SEQ ID NO: 23 (K53A, T63A, C38S, C68S, C76S, C127S, K70C) (ligand) YFGKLESKLSVIRNLNDQVLFIDQGNRPLFEDMTDSDSRDNAPRTIFIISMYADSQPRGMAVAISVKSECISTLSSENKIISFKEMNPPDNIKDTKSDIIFFQRSVPGHDNKMQFESSSYEGYFLASEKERDLFKLILKKEDELGDRSIMFTVQNED",Kd,Fc fused human IL-18Rα,> 1000 nM
same,Kd,[1],> 1000 nM
same,Kd,[2],52.8 nM
same,koff,[2],0.00118 s⁻¹
same,kon,[2],22400 M⁻¹ s⁻¹
"Modified IL-18 polypeptide of SEQ ID NO: 17 (E06K, K53A, S55A, C38S, C68S, C76S, C127S, K70C) (ligand) YFGKLKSKLSVIRNLNDQVLFIDQGNRPLFEDMTDSDSRDNAPRTIFIISMYADAQPRGMAVTISVKSECISTLSSENKIISFKEMNPPDNIKDTKSDIIFFQRSVPGHDNKMQFESSSYEGYFLASEKERDLFKLILKKEDELGDRSIMFTVQNED",Kd,Fc fused human IL-18Rα,> 1000 nM
same,Kd,[1],> 1000 nM
"Modified IL-18 polypeptide of SEQ ID NO: 22 (E06K, K53A, C38S, C68S, C76S, C127S, K70C) (ligand) YFGKLKSKLSVIRNLNDQVLFIDQGNRPLFEDMTDSDSRDNAPRTIFIISMYADSQPRGMAVTISVKSECISTLSSENKIISFKEMNPPDNIKDTKSDIIFFQRSVPGHDNKMQFESSSYEGYFLASEKERDLFKLILKKEDELGDRSIMFTVQNED",Kd,Fc fused human IL-18Rα,2210 nM
same,koff,Fc fused human IL-18Rα,0.0199 s⁻¹
same,kon,Fc fused human IL-18Rα,8970 M⁻¹ s⁻¹
same,Kd,[1],48.2 nM
same,koff,[1],0.000761 s⁻¹
same,kon,[1],15800 M⁻¹ s⁻¹
same,Kd,[2],23.2 nM
same,koff,[2],0.00235 s⁻¹
same,kon,[2],101000 M⁻¹ s⁻¹
same,"EC50 (pM), HEK-Blue IL18R reporter assay",[3],9.12 pM
same,"Potency loss Mutant/NWT, HEK-Blue IL18R reporter assay",[3],2.74 fold
"Modified IL-18 polypeptide of SEQ ID NO: 10 (E06K, K53A, S55A, T63A) (ligand) YFGKLKSKLSVIRNLNDQVLFIDQGNRPLFEDMTDSDCRDNAPRTIFIISMYADAQPRGMAVAISVKCEKISTLSCENKIISFKEMNPPDNIKDTKSDIIFFQRSVPGHDNKMQFESSSYEGYFLACEKERDLFKLILKKEDELGDRSIMFTVQNED",Kd,Fc fused human IL-18Rα,147 nM
same,koff,Fc fused human IL-18Rα,0.0496 s⁻¹
same,kon,Fc fused human IL-18Rα,337000 M⁻¹ s⁻¹
same,Kd,[1],132 nM
same,koff,[1],0.054 s⁻¹
same,kon,[1],409000 M⁻¹ s⁻¹
same,Kd,[2],49 nM
same,koff,[2],0.0181 s⁻¹
same,kon,[2],370000 M⁻¹ s⁻¹
same,"EC50 (pM), HEK-Blue IL18R reporter assay",[3],0.79 pM
same,"Potency loss Mutant/NWT, HEK-Blue IL18R reporter assay",[3],0.24 fold
"Modified IL-18 polypeptide of SEQ ID NO: 18 (E06K, K53A, T63A) (ligand) YFGKLKSKLSVIRNLNDQVLFIDQGNRPLFEDMTDSDCRDNAPRTIFIISMYADSQPRGMAVAISVKCEKISTLSCENKIISFKEMNPPDNIKDTKSDIIFFQRSVPGHDNKMQFESSSYEGYFLACEKERDLFKLILKKEDELGDRSIMFTVQNED",Kd,Fc fused human IL-18Rα,38 nM
same,koff,Fc fused human IL-18Rα,0.00573 s⁻¹
same,kon,Fc fused human IL-18Rα,151000 M⁻¹ s⁻¹
same,Kd,[1],7.01 nM
same,koff,[1],0.000955 s⁻¹
same,kon,[1],136000 M⁻¹ s⁻¹
same,Kd,[2],10.4 nM
same,koff,[2],0.00291 s⁻¹
same,kon,[2],279000 M⁻¹ s⁻¹
same,"EC50 (pM), HEK-Blue IL18R reporter assay",[3],1.77 pM
same,"Potency loss Mutant/NWT, HEK-Blue IL18R reporter assay",[3],0.53 fold
"Modified IL-18 polypeptide of SEQ ID NO: 13 (E06K, K53A, S55A, D54A) (ligand) YFGKLKSKLSVIRNLNDQVLFIDQGNRPLFEDMTDSDCRDNAPRTIFIISMYAAAQPRGMAVTISVKCEKISTLSCENKIISFKEMNPPDNIKDTKSDIIFFQRSVPGHDNKMQFESSSYEGYFLACEKERDLFKLILKKEDELGDRSIMFTVQNED",Kd,Fc fused human IL-18Rα,> 1000 nM
same,Kd,[1],> 1000 nM
same,Kd,[2],> 1000 nM
"Modified IL-18 polypeptide of SEQ ID NO: 70 (E6K, K53A, C38S, C76S, C127S) (ligand) YFGKLKSKLSVIRNLNDQVLFIDQGNRPLFEDMTDSDSRDNAPRTIFIISMYADSQPRGMAVTISVKCEKISTLSSENKIISFKEMNPPDNIKDTKSDIIFFQRSVPGHDNKMQFESSSYEGYFLASEKERDLFKLILKKEDELGDRSIMFTVQNED",Kd,Fc fused human IL-18Rα,379 nM
same,koff,Fc fused human IL-18Rα,0.0369 s⁻¹
same,kon,Fc fused human IL-18Rα,92600 M⁻¹ s⁻¹
same,Kd,[1],13.2 nM
same,koff,[1],0.0006 s⁻¹
same,kon,[1],43600 M⁻¹ s⁻¹
same,Kd,[2],29.1 nM
same,koff,[2],0.0037 s⁻¹
same,kon,[2],128000 M⁻¹ s⁻¹
same,"EC50 (pM), HEK-Blue IL18R reporter assay",[3],3.73 pM
same,"Potency loss Mutant/NWT, HEK-Blue IL18R reporter assay",[3],1.11 fold
"Modified IL-18 polypeptide of SEQ ID NO: 12 (E06K, K53A, S55A, F02A) (ligand) YAGKLKSKLSVIRNLNDQVLFIDQGNRPLFEDMTDSDCRDNAPRTIFIISMYADAQPRGMAVTISVKCEKISTLSCENKIISFKEMNPPDNIKDTKSDIIFFQRSVPGHDNKMQFESSSYEGYFLACEKERDLFKLILKKEDELGDRSIMFTVQNED",Kd,Fc fused human IL-18Rα,> 1000 nM
same,Kd,[1],> 1000 nM
same,Kd,[2],> 1000 nM
"Modified IL-18 polypeptide of SEQ ID NO: 16 (C38S, C68S, C76S, C127S, K70C) (ligand) YFGKLESKLSVIRNLNDQVLFIDQGNRPLFEDMTDSDSRDNAPRTIFIISMYKDSQPRGMAVTISVKSECISTLSSENKIISFKEMNPPDNIKDTKSDIIFFQRSVPGHDNKMQFESSSYEGYFLASEKERDLFKLILKKEDELGDRSIMFTVQNED",Kd,Fc fused human IL-18Rα,304 nM
same,koff,Fc fused human IL-18Rα,0.0158 s⁻¹
same,kon,Fc fused human IL-18Rα,51900 M⁻¹ s⁻¹
same,Kd,[1],200 nM
same,koff,[1],0.0317 s⁻¹
same,kon,[1],159000 M⁻¹ s⁻¹
same,Kd,[2],0.374 nM
same,koff,[2],0.000265 s⁻¹
same,kon,[2],708000 M⁻¹ s⁻¹
"Modified IL-18 polypeptide of SEQ ID NO: 14 (E06K, K53A, S55A, M51G) (ligand) YFGKLKSKLSVIRNLNDQVLFIDQGNRPLFEDMTDSDCRDNAPRTIFIISGYADAQPRGMAVTISVKCEKISTLSCENKIISFKEMNPPDNIKDTKSDIIFFQRSVPGHDNKMQFESSSYEGYFLACEKERDLFKLILKKEDELGDRSIMFTVQNED",Kd,Fc fused human IL-18Rα,> 1000 nM
same,Kd,[2],> 1000 nM
